Results taken from PMC8794821, “SNX27 suppresses SARS-CoV-2 infection by inhibiting viral lysosome/late endosome entry” (Proceedings of the National Academy of Sciences of the …, 2022).
No end group written: not given here.

Target: PDZ domain of SNX27 (residues 40 to 135) (human, UniProt Q96L92 40-135)
Experiment: ITC; MicroCal iTC200, 25 °C; ACE2-PBM peptide (125 µM, 5% DMSO) in the syringe, PDZ protein (100 µM, 5% DMSO) in the cell; 20 mM Tris pH 8.0, 150 mM NaCl
Conditions: both partners purified

B1: ACE2-PBM peptide (-DDVQTSF-COO−) (peptide)
peptide: DDVQTSF-OH
notes: also called human ACE2-PBM; source: synthetic peptide (Beijing SciLight Biotechnology Ltd. Co.)
Kd: 20 µM
